Consider two molecules from paper PMC4627082, “MCM ring hexamerization is a prerequisite for DNA-binding” (Nucleic Acids Research, 2015).

As a reminder, the stoichiometry N is the number of molecules, sites or subunits per partner or assembly. As a reminder, the Kd is the concentration at which binding is half-saturated.

Series [1] addresses PfMCMN-WT (residues 1–256), amino-terminal domain of Pyrococcus furiosus MCM (Pyrococcus furiosus) (UniProt Q8U3I4). The series can be described thus: AUC; sedimentation velocity at the highest PfMCMN-WT concentration (350 μM), co-interpreted with sedimentation equilibrium; 20°C, 20 mM HEPES pH 7.6, 200 mM NaCl, 5 mM β-mercaptoethanol.
The target is the same in series [2]. The series can be described thus: AUC; sedimentation velocity, 20°C, 50 000 rpm, 20 mM HEPES pH 7.6, 200 mM NaCl, 5 mM β-mercaptoethanol, interference and absorbance optics, c(s) distributions; isotherm of signal-average s-values fitted to monomer-hexamer self-association; some WT samples with 40-mer oligo-dT ssDNA (T40).
Series [3] shares this target. The series can be described thus: AUC; sedimentation equilibrium of apoproteins, 12-51 μM, 20°C, 20 mM HEPES pH 7.6, 200 mM NaCl, 5 mM β-mercaptoethanol, absorbance 280 nm; reversible monomer-hexamer (WT, hexamer to monomers) or monomer-pentamer (βT, pentamer to monomers) model; the constant is the protein concentration where half of the protein is monomeric.
Series [4] concerns the molecule itself. The series can be described thus: SEC; final size-exclusion chromatography step of purification; elution volume compared with PfMCMN-WT.
Series [5] concerns the molecule itself. The series can be described thus: AUC; sedimentation velocity, 20°C, 50 000 rpm, 20 mM HEPES pH 7.6, 200 mM NaCl, 5 mM β-mercaptoethanol, interference and absorbance optics, c(s) distributions; isotherm of signal-average s-values fitted to monomer-hexamer self-association; some WT samples with 40-mer oligo-dT ssDNA (T40).
Series [6] concerns the molecule itself. As to the kind of experiment: AUC; sedimentation equilibrium of apoproteins, 12-51 μM, 20°C, 20 mM HEPES pH 7.6, 200 mM NaCl, 5 mM β-mercaptoethanol, absorbance 280 nm; reversible monomer-hexamer (WT, hexamer to monomers) or monomer-pentamer (βT, pentamer to monomers) model; the constant is the protein concentration where half of the protein is monomeric.

With “PfMCMN-WT (residues 1–256), amino-terminal domain of Pyrococcus furiosus MCM (from UniProt Q8U3I4 1-256) (domain or fragment)”, the stoichiometry N in series [1] amounted to 12. In series [2], the Kd is 58 µM, the percent hexamer at 15 μM with T40 ssDNA came to 55%, the percent hexamer at 38 μM with T40 ssDNA was 72% and the percent hexamer at 45 μM with T40 ssDNA was determined as 72%. In series [2], the percent hexamer at 128 μM with T40 ssDNA worked out at 82%, the percent of protein in the hexameric fraction at 76 μM is 37%, the percent of protein in the hexameric fraction at 180 μM worked out at 60% and the stoichiometry N stood at 6. In series [3], this molecule came in with a Kd of 60 µM.

B1: PfMCMN-βT (1–256; K233A; R234A; K236A) (domain or fragment, Pyrococcus furiosus, UniProt Q8U3I4 1-256, looked up)
chain: MDREEMIERFANFLREYTDEDGNPVYRGKITDLLTITPKRSVAIDWMHLNSFDSELAHEVIENPEEGISAAEDAIQIVLREDFQREDVGKIHARFYNLPETLMVKDIGAEHINKLIQVEGIVTRVGEIKPFVSVAVFVCKDCGHEMIVPQKPYESLEKVKKCEQCGSKNIELDVNKSSFVNFQSFRIQDRPETLKGGEMPRFIDGILLDDIVDVALPGDRVIVTGILRVVLEAAEATPIFRKILEVNHIEPVSKEI
notes: Minichromosome Maintenance (MCM) protein of Pyrococcus furiosus, N-terminal domain, residues 1-256, with three alanine mutations of the β-turn; Made by site-directed mutagenesis of the PfMCMN-WT SUMO-fusion construct; SUMO removed by Ulp1; also called β-turn triple mutant; pCF076.1
Regarding B1, the “stoichiometry N” value is about 3 in series [4] and 5 in series [5]. Moreover, in series [6], binding was characterised by a dissociation constant (Kd) of 8 µM.
